# In publication PMC7069074:
# Molecular target: T1, ERα (purified) (UniProt P03372)
# T1 sequence: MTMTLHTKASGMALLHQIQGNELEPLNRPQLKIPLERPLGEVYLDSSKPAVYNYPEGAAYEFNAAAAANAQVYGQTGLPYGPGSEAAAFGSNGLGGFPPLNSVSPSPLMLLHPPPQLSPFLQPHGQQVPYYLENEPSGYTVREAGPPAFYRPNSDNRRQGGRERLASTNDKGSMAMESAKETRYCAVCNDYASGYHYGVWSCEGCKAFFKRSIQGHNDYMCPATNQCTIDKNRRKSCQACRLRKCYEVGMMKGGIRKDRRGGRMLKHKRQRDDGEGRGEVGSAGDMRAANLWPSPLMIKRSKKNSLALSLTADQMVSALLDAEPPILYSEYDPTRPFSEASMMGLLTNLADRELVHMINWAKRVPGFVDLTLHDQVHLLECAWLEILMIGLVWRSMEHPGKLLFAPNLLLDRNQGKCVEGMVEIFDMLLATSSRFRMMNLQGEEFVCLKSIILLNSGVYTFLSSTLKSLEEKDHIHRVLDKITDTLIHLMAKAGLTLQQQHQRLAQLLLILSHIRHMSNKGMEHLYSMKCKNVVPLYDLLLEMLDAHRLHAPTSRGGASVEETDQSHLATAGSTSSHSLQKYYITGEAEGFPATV
# Experiment: EMSA (1% agarose, ethidium bromide)
# Details: EMSA: 0.1 M KCl, 1 mM DTT, 1 mM MgCl2, 10 mM HEPES pH 7.6, 37 °C, 30 min; pull-down: lysate in 5 mM PIPES, 85 mM KCl, 0.5% NP-40, 2 mM PMSF, 4 °C overnight …
sequence,measurement,value
AACGGAGTGTAGTCGGCTGACCCCTAGCATAGAGCAGTGCTGTTGGCTACTAACCACACCTCTCTACCTCTTTCTTACTCTAATATTACCCACCACAACAGCCAGAAAGTTCTTTTGAGAACATCTATCTGATCATGACACTGTCTTACTTAAAATCTTCCAGTGACTACTATTACCCTTAGGGTAGTCCAGATTCCATAATGTGGTTTACTGGACTCTATGACTTCTAAGAGAAGTCTTAGAGT (double strand) [YB-1 promoter],binding,binds
